Source: patent publication US7211422B2, “Polypeptide having α-isomaltosylglucosaccharide synthase activity” (Kabushiki Kaisha Hayashibara Seibutsu Kagaku Kenkyujo, priority 2001, dated 2007)

Key:
[1] = Test on reducing-power formation; type: biochemical; conditions: 1% (w/v) maltotetraose, 0.25 unit/g substrate, 35° C., pH 6.0 (pH 8.4 for A19)
Method: The following test was carried out to study whether the polypeptide having α-isomaltosylglucosaccharide-forming enzyme activity had the ability of forming reducing-power or not. To a 1% (w/v) aqueous solution of maltotetraose as a substrate was added 0.25 unit/g substrate, d.s.b., of either of purified polypeptide specimen of α-isomaltosylglucosaccharide-forming enzyme from Bacillus globisporus C11 obtained by the method in Experiment 1-3, Bacillus globisporus N75 obtained by the method in Experiment2-3, or Arthrobacter globiformis A19 obtained by the method in Experiment 3-3, and incubated at 35° C. and at pH 6.0, except that pH 8.4 was used for the enzyme from Arthrobacter globiformis A19. During the reaction, a portion of each reaction mixture was sampled at prescribed time intervals and measured for reducing power after keeping at 100° C. for 10 minutes to stop the enzymatic reaction. Before and after the enzymatic reaction, the reducing sugar content and total sugar content were respectively quantified by the Somogyi-Nelson method and anthrone-sulfuric acid method. The percentage of forming reducing power was calculated by the following equation: Percentage of forming reducing power (%)=(AR/AT−BR/BT)×100 Equation: • AR: Reducing sugar content after enzymatic reaction. • AT: Total sugar content after enzymatic reaction. • BR: Reducing sugar content before enzymatic reaction. • BT: Total sugar content before enzymatic reaction.

[2] = Isoelectric point by isoelectrophoresis (2% ampholine gel); type: physicochemical; conditions: gel containing 2% (w/v) ampholine
Source text: Purified specimens of the polypeptide having α-isomaltosylglucosaccharide-forming enzyme activity from Bacillus globisporus C11 obtained by the method in Experiment 1-3, Bacillus globisporus N75 obtained by the method in Experiment 2–3, and Arthrobacter globiformis A19 obtained by the method in Experiment 3-3 were subjected to isoelectrophoresis using a gel containing 2% (w/v) ampholine commercialized by Amersham Biosciences K. K., Tokyo, Japan (old name, Amersham Pharmacia Biotech), and then measured pHs of protein bands and gel to determine their isoelectric points.

[3] = Effect of temperature and pH on α-isomaltosylglucosaccharide-forming enzyme activity; type: biochemical; conditions: for Optimum temperature: pH 6.0 for 60 minutes; for Optimum pH: incubated at 35° C. for 60 minutes
Method: The two types of enzymatic activities described above were measured as following. The activity of α-isomaltosylglucosaccharide-forming enzyme was measured by the following assay: A substrate solution was prepared by dissolving maltotriose in 100 mM acetate buffer (pH 6.0) to give a concentration of 2% (w/v). A reaction mixture was prepared by mixing 0.5 ml of the substrate solution and 0.5 ml of an enzyme solution, and incubated at 35° C. for 60 minutes. After stopping the reaction by boiling for 10 minutes, the amount of maltose formed in the reaction mixture was determined by high-performance liquid chromatography (HPLC). One unit of α-isomaltosylglucosaccharide-forming activity was defined as the amount of the enzyme that forms one μmole of maltose per minute under the above conditions. HPLC was carried out using “SHODEX KS-801 column”, Showa Denko K. K., Tokyo, Japan, at a column temperature of 60° C. and a flow rate of 0.5 ml/minutes of water, and using “RI-8012”, a differential refractometer commercialized by Tosoh Corporation, Tokyo, Japan.
The effect of temperature and pH on the α-isomaltosylglucosaccharide-forming enzyme activity was examined in accordance with the assay for the α-isomaltosylglucosaccharide-forming enzyme activity under various temperature and pH conditions. The effect of temperature was conducted in the presence or absence of 1 mM Ca^2+. […] The optimum temperature of the polypeptide having α-isomaltosylglucosaccharide-forming enzyme activity from a strain C11 was about 45° C. (in the absence of Ca^2+) and about 50° C. (in the presence of Ca^2+) when incubated at pH 6.0 for 60 minutes, and the optimum pH was about 6.0 when incubated at 35° C. for 60 minutes. The optimum temperature of the polypeptide having α-isomaltosylglucosaccharide-forming enzyme activity from a strain N75 was about 50° C. (in the absence of Ca^2+) and about 55° C. (in the presence of Ca^2+) when incubated at pH 6.0 for 60 minutes, and the optimum pH was about 6.0 when incubated at 35° C. for 60 minutes. The optimum temperature of the polypeptide having α-isomaltosylglucosaccharide-forming enzyme activity from a strain A19 was about 60° C. (in the absence of Ca^2+) and about 65° C. (in the presence of Ca^2+) when incubated at pH 8.4 for 60 min, and the optimum pH was about 8.4 when incubated at 35° C. for 60 minutes.

[4] = Thermal stability and pH stability (residual enzyme activity); type: physicochemical; conditions: 20 mM acetate buffer pH 6.0, 60 minutes
Method: The thermal stability of the polypeptide having α-isomaltosylglucosaccharide-forming enzyme activity was determined by incubating the testing polypeptide solution in 20 mM acetate buffer, pH6.0 (in the case of the polypeptide from a strain A19, 20 m M Glycine-NaOH buffer, pH 8.0) at prescribed temperatures for 60 minutes in the presence or absence of 1 mM Ca^2+, cooling with water the resulting polypeptide solutions, and assaying the residual enzyme activity of each solution. The pH stability of the polypeptide having α-isomaltosylglucosaccharide-forming enzyme activity was determined by keeping the testing polypeptide solutions in 50 mM buffer having prescribed pHs at 4° C. for 24 hours, adjusting the pH of each solution to 6.0 (in the case of the polypeptide from a strain A19, pH 8.0), and assaying the residual enzyme activity of each solution. […] The thermal stability of the polypeptide having α-isomaltosylglucosaccharide-forming enzyme activity from a strain C11 was up to about 40° C. (in the absence of Ca^2+) and about 45° C. (in the presence of Ca^2+), and pH stability of about 5.0 to about 10.0. The thermal stability of the polypeptide having α-isomaltosylglucosaccharide-forming enzyme activity from a strain N75 was up to about 45° C. (in the absence of Ca^2+) and about 50° C. (in the presence of Ca^2+), and pH stability of about 5.0 to about 9.0. The thermal stability of the polypeptide having α-isomaltosylglucosaccharide-forming enzyme activity from a strain A19 was up to about 55° C. (in the absence of Ca^2+) and about 60° C. (in the presence of Ca^2+), and pH stability of about 5.0 to about 9.0.

B1: Enzyme of Strain N75: purified polypeptide having α-isomaltosylglucosaccharide-forming enzyme activity from Bacillus globisporus N75 (Experiment 2-3); contains SEQ ID NO: 2 (protein)
chain: HVSALGNLLSSAVTGDTLTLTIDNGAEPNDDILVLQAVQNGILKVDYRPNGVAPSADTPMLDPNKTWPSIGAVINTASNPMTITTPAMKIEIAKNPVRLTVKKPDGTALLWEPPTGGVFSDGVRFLHGTGDNMYGIRSFNAFDSGGDLLRNSSTQAARAGDQGNSGGPLIWSTAGYGVLVDSDGGYPFTDEATGKLEFYYGGTPPEGRRYTKQDVEYYIMLGTPKEIMSGVGEITGKPPMLPKWSLGFMNFEWDLNEAELKNHVDTYRAKNIPIDGYAIDFDWKKYGENNYGEFAWNTANFPSAATTALKSQMDAKGIKMIGITKPRIATKDFSNNPTVQGTDAASGGYFYPGHSEYKDYFIPVFVRSIDPYNPAARSWFWNHSKDAFDKGIVGWWNDETDAVSSGGASYWFGNFTTGHMSQALYEGQRAYTSNAQRVWQTARTFYPGAQRYATTLWSGDIGIQYTKGERINWAAGMQEQRAVMLSSINNGQVKWGMDTGGFNQQDGTTNNPNPDLYARWMQFSALTPVFRVHGNNHQQRQPWYYGSTAEEASKEALQLRYSLIPYMYAYERSAYENGNGLVRPLMQEYPADANAKNYLDAWMFGDWLLAAPVVEKQQTSKEIYLPAGTWIDYNRGTVLTGGQKISYAVNPDTLTDIPLFIKKGAIIPSQKVQDYVGQAPVQTVDVDVFPNTAQSSFTYYDDDGSSYNYESGAYFKQLMTAQDNGSGALSFTLGAKTGTYSPALQSYIVKLHGAAGASVTSNGAALASYASLQALKASASEGWAKGKDIYGDVTYVKLSAGAAAAKAIAVTGNSPVSVADVQYEAEEASLSGNTTATKATVNTNHAGYTGSGFVDGLSNPGAAVTFYPKVKTGGDYNVSLRYANSTGAAKSVSIFVNGKRVKSTSLANLPNWDTWGTQAETLPLTAGTNVVTYKFYSDAGDTGSVNLDNITVPFAPAIGKYEAESAELSGGSTVNQNHWFYSGTAFVDGLTAPGAQVKYTVNAPAAGSYQIALRYANGTGAAKTLSTYVNGTKLGQTAFASPGGNWNVWQDSVQTVALAAGTNTIAFKYDAGDSGSGSVNLDRLLLSAAAPGVPVSEQNLLDNGGFERDPSQSSNWTEWHPASQAIAYGIDSGSGMNPPESPWAGDKRAYFYAAGPYQQSIHQTVSVPVNNAKYKFEAWVLLKNTTPTTARVEIQNYGGSPIFTNISKDGVWKYISVSDIQVTNGQIDIGFYVDSPGGTTLHIDDVRVTKQ
modifications: Bacillus globisporus N75
Percentage of forming reducing power ([1]; reaction time 0 hour): 0.0%
Percentage of forming reducing power ([1]; reaction time 1 hour): 0.1%
Percentage of forming reducing power ([1]; reaction time 2 hours): 0.0%
Percentage of forming reducing power ([1]; reaction time 4 hours): 0.0%
Percentage of forming reducing power ([1]; reaction time 8 hours): 0.1%
Isoelectric point [2]: about 7.3±0.5
Optimum temperature ([3]; in the absence of Ca2+): about 50 °C
Optimum temperature ([3]; in the presence of 1 mM Ca2+): about 55 °C
Optimum pH [3]: about 6.0
Thermal stability ([4]; in the presence of 1 mM Ca2+): ≤ 50 °C

B2: Enzyme of Strain C11: purified polypeptide having α-isomaltosylglucosaccharide-forming enzyme activity from Bacillus globisporus C11 (Experiment 1-3); contains SEQ ID NO: 1 (protein)
chain: YVSSLGNLISSSVTGDTLTLTVDNGAEPSDDLLIVQAVQNGILKVDYRPNSITPSAKTPMLDPNKTWSAVGATINTTANPMTITTSNMKIEITKNPVRMTVKKADGTTLFWEPSGGGVFSDGVRFLHATGDNMYGIRSFNAFDSGGDLLRNSSNHAAHAGEQGDSGGPLIWSTAGYGLLVDSDGGYPYTDSTTGQMEFYYGGTPPEGRRYAKQNVEYYIMLGTPKEIMTDVGEITGKPPMLPKWSLGFMNFEWDTNQTEFTNNVDTYRAKNIPIDAYAFDYDWKKYGETNYGEFAWNTTNFPSASTTSLKSTMDAKGIKMIGITKPRIVTKDASANVTTQGTDATNGGYFYPGHNEYQDYFIPVTVRSIDPYNANERAWFWNHSTDALNKGIVGWWNDETDKVSSGGALYWFGNFTTGHMSQTMYEGGRAYTSGAQRVWQTARTFYPGAQRYATTLWSGDIGIQYNKGERINWAAGMQEQRAVMLSSVNNGQVKWGMDTGGFNQQDGTTNNPNPDLYARWMQFSALTPVFRVHGNNHQQRQPWYFGSTAEEASKEAIQLRYSLIPYMYAYERSAYENGNGLVRPLMQAYPTDAAVKNYTDAWMFGDWLLAAPVVDKQQTSKDIYLPSGSWIDYARGNAITGGQTIRYSVNPDTLTDMPLFIKKGAIIPTQKVQDYVGQASVTSVDVDVFPDTTQSSFTYYDDDGASYNYESGTYFKQNMTAQDNGSGSLSFTLGAKSGSYTPALQSYIVKLHGSAGTSVTNNSAAMTSYASLEALKAAAGEGWATGKDIYGDVTYVKVTAGTASSKSIAVTGVAAVSATTSQYEAEDASLSGNSVAAKASINTNHTGYTGTGFVDGLGNDGAGVTFYPKVKTGGDYNVSLRYANASGTAKSVSIFVNGKRVKSTSLANLANWDTWSTQSETLPLTAGVNVVTYKYYSDAGDTGNVNIDNITVPFAPIIGKYEAESAELSGGSSLNTNHWYYSGTAFVDGLSAVGAQVKYNVNVPSAGSYQVALRYANGSAATKTLSTYINGAKLGQTSFTSPGTNWNVWQDNVQTVTLNAGANTIAFKYDAADSGNINVDRLLLSTSAAGTPVSEQNLLDNPGFERDTSQTNNWIEWHPGTQAVAFGVDSGSTTNPPESPWSGDKRAYFFAAGAYQQSIHQTISVPVNNVKYKFEAWVRMKNTTPTTARAEIQNYGGSAIYANISNSGVWKYISVSDIMVTNGQIDVGFYVDSPGGTTLHIDDVRVTKQ
modifications: Bacillus globisporus C11
Percentage of forming reducing power ([1]; reaction time 0 hour): 0.0%
Percentage of forming reducing power ([1]; reaction time 1 hour): 0.1%
Percentage of forming reducing power ([1]; reaction time 2 hours): 0.0%
Percentage of forming reducing power ([1]; reaction time 4 hours): 0.1%
Percentage of forming reducing power ([1]; reaction time 8 hours): 0.0%
Isoelectric point [2]: about 5.2±0.5
Optimum temperature ([3]; in the absence of Ca2+): about 45 °C
Optimum temperature ([3]; in the presence of 1 mM Ca2+): about 50 °C
Optimum pH [3]: about 6.0
Thermal stability ([4]; in the absence of Ca2+): up to 40 °C
